Assay [1] has as its target T1, Cas6-2a of Synechocystis sp. PCC 6803 (Synechocystis sp. PCC 6803).
T1 construct: The Results say cas6-2a was cloned and expressed with the operon
T1 chain: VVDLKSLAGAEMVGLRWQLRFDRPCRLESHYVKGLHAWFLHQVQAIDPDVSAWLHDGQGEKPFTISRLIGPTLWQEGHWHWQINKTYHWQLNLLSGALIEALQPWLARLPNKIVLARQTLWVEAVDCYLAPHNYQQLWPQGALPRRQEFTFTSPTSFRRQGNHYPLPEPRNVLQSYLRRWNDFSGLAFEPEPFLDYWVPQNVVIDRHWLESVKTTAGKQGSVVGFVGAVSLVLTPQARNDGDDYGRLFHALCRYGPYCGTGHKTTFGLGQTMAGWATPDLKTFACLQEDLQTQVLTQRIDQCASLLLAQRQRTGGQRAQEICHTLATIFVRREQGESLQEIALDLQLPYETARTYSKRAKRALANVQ
The assay is described as follows: metal affinity (His6-Cas10) and size-exclusion co-purification from E. coli; SDS-PAGE and mass spectrometry. As to the method: (§1) The sample was applied to a second HisTrap column; however, due to inefficient TEV cleavage, the complex unexpectedly bound the column and eluted with high imidazole. The complex was further purified by size exclusion chromatography (SEC) on a HiLoad 16/600 Superdex 200 column (GE Healthcare) equilibrated in SEC Buffer). Mutant Type III-Dv complexes were similarly expressed and purified, except TEV protease was omitted. Purified complexes were typically concentrated to 1.5 mg/ml using a centrifugal concentrator (Amicon; 100 kDa MWCO), aliquoted, and stored at −80° C.
Denaturing liquid chromatography mass spectrometry (LC-MS) was performed on a Dionex UltiMate 3000 nanoLC system coupled to a Thermo Orbitrap Fusion Lumos Tribrid mass spectrometer (San Jose, Ca). The trap column (3 cm) and analytical column (30 cm) were packed in-house with polymer reverse-phase (PLRP) packing material. Approximately 80 ng of the CRISPR complex were injected and subjected to reverse-phase chromatography, utilizing water with 0.1% formic acid as mobile phase A (MPA), and acetonitrile with 0.1% formic acid as mobile phase B (MPB). Forward trapping occurred for 5 minutes at 2% MPB at a flow rate of 5 μL/min at the trap column. Elution onto the analytical column (at 0.3 μL/min) occurred by increasing MPB to 10% over a 3-minute gradient followed by an increase to 35% MPB over 32 minutes. […]
For orientation: Size exclusion chromatography separates by hydrodynamic size, large species first.

Assay [2] deals with T2, Cas7-Cas5-Cas11 fusion subunit of the Synechocystis sp. PCC 6803 Type III-Dv complex (Synechocystis sp. PCC 6803).
T2 construct: Untagged, co-expressed from pPF2434 in E. coli; one copy in the complex; also called Cas7-5-11; Cas5-Cas7-Cas11
T2 chain: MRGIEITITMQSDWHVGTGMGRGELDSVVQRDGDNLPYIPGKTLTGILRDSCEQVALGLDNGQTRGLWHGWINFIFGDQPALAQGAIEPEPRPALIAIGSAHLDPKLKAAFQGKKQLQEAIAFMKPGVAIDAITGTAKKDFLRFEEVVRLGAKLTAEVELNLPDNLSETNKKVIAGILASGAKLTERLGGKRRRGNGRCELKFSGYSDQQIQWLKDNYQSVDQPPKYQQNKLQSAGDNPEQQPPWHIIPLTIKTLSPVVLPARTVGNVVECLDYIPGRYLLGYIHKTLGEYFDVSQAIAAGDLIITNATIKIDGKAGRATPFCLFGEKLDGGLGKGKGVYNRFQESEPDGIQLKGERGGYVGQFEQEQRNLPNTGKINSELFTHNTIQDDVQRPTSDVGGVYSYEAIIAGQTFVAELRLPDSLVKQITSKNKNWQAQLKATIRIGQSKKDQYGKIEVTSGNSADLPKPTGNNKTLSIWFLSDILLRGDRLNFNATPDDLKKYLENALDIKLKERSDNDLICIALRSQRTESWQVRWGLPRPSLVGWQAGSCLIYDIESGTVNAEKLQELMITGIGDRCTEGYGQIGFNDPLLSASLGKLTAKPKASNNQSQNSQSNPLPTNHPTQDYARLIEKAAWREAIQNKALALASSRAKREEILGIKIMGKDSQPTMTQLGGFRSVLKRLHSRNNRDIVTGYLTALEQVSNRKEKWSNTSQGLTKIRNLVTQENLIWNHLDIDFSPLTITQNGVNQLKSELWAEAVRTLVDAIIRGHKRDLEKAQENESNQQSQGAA
The assay is described as follows: co-purification by metal affinity (His6-Cas10) and SEC; SDS-PAGE and MS; membership of one complex. On the procedure:
as §1, with “Cells were lysed by a French pressure cell press (American Industry Company) at 10,000 psi, and the lysate was clarified by centrifugation at 15,000×g for 15 min. […] The fractions containing the Type III-Dv complex were pooled and treated with TEV protease and incubated at 4° C. during overnight dialysis in SEC buffer (10 mM HEPES-NaOH, PH 7.5, 100 mM KCl, 5% Glycerol, 1 mM DTT). The sample” for “The sample”
Denaturing liquid chromatography mass spectrometry (LC-MS) was performed on a Dionex UltiMate 3000 nanoLC system coupled to a Thermo Orbitrap Fusion Lumos Tribrid mass spectrometer (San Jose, Ca). The trap column (3 cm) and analytical column (30 cm) were packed in-house with polymer reverse-phase (PLRP) packing material. […]

This is an account of results in US20250361544A1, “TYPE III-D CRISPR-CAS SYSTEM AND USES THEREOF” (BOARD OF REGENTS, THE UNIVERSITY OF TEXAS SYSTEM, published 2025).

B1: Cas10 subunit of the Synechocystis sp. PCC 6803 Type III-Dv CRISPR-Cas complex, with N-terminal His6 tag and TEV site (other)
chain: MFLVLIETSGNQHFIFSTNKLRENIGASELTYLATTEILFQGVDRVFQTNYYDQWSDTNSLNFLADSKLNPAIDDPKNNADIEILLATSGKAIALVKEEGKAKQLIKEVTKQALINAPGLEIGGIYVNCNWQDKLGVAKAVKEAHKQFEVNRAKRAGANGRFLRLPIAAGCSVSELPASDFDYNADGDKIPVSTVSKVKRETAKSAKKRLRSVDGRLVNDLAQLEKSFDELDWLAVVHADGNGLGQILLSLEKYIGEQTNRNYIDKYRRLSLALDNCTINAFKMAIAVFKEDSKKIDLPIVPLILGGDDLTVICRGDYALEFTREFLEAFEGQTETHDDIKVIAQKAFGVDRLSACAGISIIKPHFPFSVAYTLAERLIKSAKEVKQKVTVTNSSPITPFPCSAIDFHILYDSSGIDFDRIREKLRPEDNTELYNRPYVVTAAENLSQAQGYEWSQAHSLQTLADRVSYLRSEDGEGKSALPSSQSHALRTALYLEKNEADAQYSLISQRYKILKNFAEDGENKSLFHLENGKYVTRFLDALDAKDFFANANHKNQGE
notes: Whole gene amplified from Synechocystis genomic DNA and co-expressed in E. coli from pPF2434; The complex also holds a 37-nt crRNA; also called His6-TEV-Cas10; N-His6-tagged Cas10; not shown: TEV cleavage was inefficient, so
On to B1, for which the binding result in assay [1] is “no binding”; in assay [2] it was “binds”.
